In patent publication US20030091557:

System: ACE-2 inhibitor peptide (the most active ACE-2 inhibitor peptide)

For Angiotensin converting enzyme (ACE), the “hydrolysis of the substrate hip-his-leu (250 mM) by ACE (1.5 nM)” value was “the inhibitor did not affect the hydrolysis of the substrate, hip-his-leu (250 mM) by ACE (1.5 nM), even at 25 mM”.
With recombinant human ACE-2 the “conversion of angiotensin I to A1-9 by ACE-2” value was “This peptide also inhibited conversion of angiotensin I to A1-9 by ACE-2”.
